Measurements as given in US20180291110A1 (Hoffmann-La Roche, published 2018).

Tests used:
[1] = target: T1, Her2 ECD (amino acids 1 to 629 of matured HER2 with C-terminal avi-tag and His-tag) (human, UniProt P04626 23-652); assay: SPR, Ab captured, Her2 analyte;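 note: ProteOn XPR36 SPR, rate constants from simultaneous fit of association and dissociation sensorgrams to a 1:1 Langmuir model, buffer-channel referenced, KD taken as koff/kon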
T1 construct: also called purified Her2

[2] = target: T2, human transferrin receptor (recombinant, for surface plasmon resonance) (human, UniProt P02786 89-760); assay: SPR
T2 construct: also called huTfR; human transferrin receptor-biotinylated
T2 sequence (P02786 89-760 limits assumed): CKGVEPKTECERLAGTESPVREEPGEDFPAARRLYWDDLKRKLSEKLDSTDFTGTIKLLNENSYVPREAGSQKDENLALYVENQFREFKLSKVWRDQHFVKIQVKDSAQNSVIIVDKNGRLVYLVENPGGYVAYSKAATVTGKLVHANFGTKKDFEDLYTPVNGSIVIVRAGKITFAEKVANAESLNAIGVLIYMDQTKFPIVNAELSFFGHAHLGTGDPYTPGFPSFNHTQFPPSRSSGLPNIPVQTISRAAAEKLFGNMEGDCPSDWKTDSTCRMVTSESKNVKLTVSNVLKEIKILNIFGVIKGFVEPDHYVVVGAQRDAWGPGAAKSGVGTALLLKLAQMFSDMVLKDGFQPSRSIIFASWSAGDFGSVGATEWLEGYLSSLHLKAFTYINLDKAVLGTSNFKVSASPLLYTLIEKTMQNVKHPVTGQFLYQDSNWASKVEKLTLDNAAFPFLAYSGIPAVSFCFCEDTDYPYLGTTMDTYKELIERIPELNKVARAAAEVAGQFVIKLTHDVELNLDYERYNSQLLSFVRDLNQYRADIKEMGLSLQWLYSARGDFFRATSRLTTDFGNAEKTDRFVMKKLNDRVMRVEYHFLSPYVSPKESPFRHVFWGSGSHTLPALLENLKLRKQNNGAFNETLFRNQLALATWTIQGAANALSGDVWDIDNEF

Binder	Kd [1] [nM]	koff [1] [s⁻¹]	kon [1] [M⁻¹ s⁻¹]	koff [2] [s⁻¹]
Trastuzumab HC x Pertuzumab (Tras.L3) R54L LC (antibody, V domains shown) VH: not shown VL: DIQMTQSPSSLSASVGDRVTITCKASQDVSIGVAWYQQKPGKAPKLLIYSASYLYTGVPSRFSGSGSGTDFTLTISSLQPEDFATYYCQQHYTTPPTFGQGTKVEIK	71.5	0.0297	416000	
Trastuzumab HC x Pertuzumab (Tras.L3) S30N LC (antibody, V domains shown) VH: not shown VL: DIQMTQSPSSLSASVGDRVTITCKASQDVNIGVAWYQQKPGKAPKLLIYSASYRYTGVPSRFSGSGSGTDFTLTISSLQPEDFATYYCQQHYTTPPTFGQGTKVEIK	64.6	0.0256	396000	
Trastuzumab HC x Pertuzumab (Tras.L3) T56S LC (antibody, V domains shown) VH: not shown VL: DIQMTQSPSSLSASVGDRVTITCKASQDVSIGVAWYQQKPGKAPKLLIYSASYRYSGVPSRFSGSGSGTDFTLTISSLQPEDFATYYCQQHYTTPPTFGQGTKVEIK	49.4	0.0232	470000	
Trastuzumab HC x Pertuzumab (Tras.L3) Y53F LC (antibody, V domains shown) VH: not shown VL: DIQMTQSPSSLSASVGDRVTITCKASQDVSIGVAWYQQKPGKAPKLLIYSASFRYTGVPSRFSGSGSGTDFTLTISSLQPEDFATYYCQQHYTTPPTFGQGTKVEIK	44.9	0.0171	381000	
4/94 murine VH / murine VL (antibody, V domains shown, 0 (mu) read as the murine parental domains of clone 4/94; also called 0 (mu) x 0 (mu)) VH: EVQLQQSGAVLVKPGASVKLSCPASGFNIKDTYIHWVIQRPEQGLEWIGRIDPANGDTKCDPKFQVKATITADTSSNTAYLQLSSLTSEDTAVYFCVRDYLYPYYFDFWGQGTTLTVSS VL: KIVMTQSPKSMSMSVGERVTLNCRASESVDTYVSWYQQKPEQSPELLIYGASNRYTGVPDRFTGSGSATDFTLTISSVQAEDLADYYCGQTYNYPLTFGAGTKLELKR				0.000136
4/94 murine VH / SEQ ID NO 201 (antibody, V domains shown) VH: EVQLQQSGAVLVKPGASVKLSCPASGFNIKDTYIHWVIQRPEQGLEWIGRIDPANGDTKCDPKFQVKATITADTSSNTAYLQLSSLTSEDTAVYFCVRDYLYPYYFDFWGQGTTLTVSS VL: KIQMTQSPSSLSASVGDRVTITCRASESVDTYVSWYQQKPGKAPKLLIYGASNRYTGVPSRFSGSGSGTDFTLTISSLQPEDFADYYCGQTYNYPLTFGQGTKLEI				0.000137
4/94 murine VH / SEQ ID NO 207 (antibody, V domains shown) VH: EVQLQQSGAVLVKPGASVKLSCPASGFNIKDTYIHWVIQRPEQGLEWIGRIDPANGDTKCDPKFQVKATITADTSSNTAYLQLSSLTSEDTAVYFCVRDYLYPYYFDFWGQGTTLTVSS VL: KIVLTQSPGTLSLSPGERATLSCRASESVDTYVSWYQQKPGQAPRLLIYGASNRYTGVPDRFSGSGSGTDFTLTISRLEPEDFADYYCGQTYNYPLTFGQGTKLEI				0.000156
4/94 murine VH / SEQ ID NO 208 (antibody, V domains shown) VH: EVQLQQSGAVLVKPGASVKLSCPASGFNIKDTYIHWVIQRPEQGLEWIGRIDPANGDTKCDPKFQVKATITADTSSNTAYLQLSSLTSEDTAVYFCVRDYLYPYYFDFWGQGTTLTVSS VL: EIVLTQSPGTLSLSPGERATLSCRASESVDTYVSWYQQKPGQAPRLLIYGASNRYTGVPDRFSGSGSGTDFTLTISRLEPEDFADYYCGQTYNYPLTFGQGTKLEI				0.000148
4/94 murine VH / SEQ ID NO 209 (antibody, V domains shown) VH: EVQLQQSGAVLVKPGASVKLSCPASGFNIKDTYIHWVIQRPEQGLEWIGRIDPANGDTKCDPKFQVKATITADTSSNTAYLQLSSLTSEDTAVYFCVRDYLYPYYFDFWGQGTTLTVSS VL: KIVLTQSPGTLSLSPGERATLSCRASESVDTYVSWYQQKPGQAPRLLIYGASNRYTGIPDRFSGSGSGTDFTLTISRLEPEDFADYYCGQTYNYPLTFGQGTKLEI				0.000177
4/94 SEQ ID NO 196 / murine VL (antibody, V domains shown) VH: QVQLVQSGAEVKKPGASVKVSCKASGFNIKDTYIHWVIQAPGQGLEWMGRIDPANGDTKSDPKFQGRVTITADTSTSTVYMELSSLRSEDTAVYYCVRDYLYPYYFDFWGQGTTVTVSS VL: KIVMTQSPKSMSMSVGERVTLNCRASESVDTYVSWYQQKPEQSPELLIYGASNRYTGVPDRFTGSGSATDFTLTISSVQAEDLADYYCGQTYNYPLTFGAGTKLELKR				0.000339
